This is an account of results in patent US20240307538A1.

Assay [1] deals with Fc gamma macrophage receptors. The assay is described as follows: flow cytometry on human macrophages, hybrid 5 µg/ml, 2 h at 37°C, anti-Fc-FITC. A general note: A flow cytometer gives signals particle by particle.
Assay [2] concerns the target Fc gamma macrophage receptors. The assay is described as follows: flow cytometry on human macrophages, hybrid 5 µg/ml, 20 h at 37°C, anti-Fc-FITC.
The target in assay [3] is Fc gamma macrophage receptors. The assay is described as follows: cell-based or functional assay.
Assay [4] addresses Fc gamma receptors of NK cells. The experiment in a line: cell-based or functional assay.
Assay [5] addresses Fc gamma receptors of NK cells. The experiment in a line: cytofluorimetry on NK cells, 24 h at 37°C.
Assay [6] addresses Fc gamma receptors of NK cells. The experiment in a line: cytofluorimetry on NK cells, 48 h at 37°C.
Assay [7] concerns the target Fc gamma receptors of NK cells. The experiment in a line: cytofluorimetry on NK cells, 30 min at 37°C.
Assay [8] addresses Fc gamma receptors of NK cells. The assay is described as follows: cytofluorimetry on NK cells, labelled Fc 10 µg/ml, 30 min at 37°C, no IgG.
In assay [9] the target is Fc gamma receptors of NK cells. The assay is described as follows: competition, cytofluorimetry on NK cells: labelled FcSDHFSTIE-N3-DBCO-A647 10 µg/ml with human IgG 1 µg/ml.
In assay [10] the target is Fc gamma receptors of NK cells. The experiment in a line: competition, cytofluorimetry on NK cells: labelled FcSDHFSTIE-N3-DBCO-A647 10 µg/ml with human IgG 10 µg/ml.
For assay [11], the target named is Fc gamma receptors of NK cells. The assay is described as follows: competition, cytofluorimetry on NK cells: labelled FcSDHFSTIE-N3-DBCO-A647 10 µg/ml with human IgG 100 µg/ml.
Assay [12] addresses Fc gamma receptors of NK cells. The experiment in a line: competition, cytofluorimetry on NK cells: labelled FcSDHFSTIE-N3-DBCO-A647 10 µg/ml with human IgG 1000 µg/ml.
Assay [13] has as its target Fc gamma receptors of NK cells. The assay is described as follows: competition, cytofluorimetry on NK cells: labelled FcSDHFSTIE-N3-DBCO-A647 10 µg/ml with human IgG 10000 µg/ml.
Assay [14] addresses Fc gamma receptors of NK cells. The assay is described as follows: competition, cytofluorimetry on NK cells: labelled FcSDHFSTIE-N3-DBCO-A647 10 µg/ml with human IgG 1 µg/ml; ratio to NEG.
For assay [15], the target named is Fc gamma receptors of NK cells. The experiment in a line: competition, cytofluorimetry on NK cells: labelled FcSDHFSTIE-N3-DBCO-A647 10 µg/ml with human IgG 10 µg/ml; ratio to NEG.
Assay [16] has as its target Fc gamma receptors of NK cells. The assay is described as follows: competition, cytofluorimetry on NK cells: labelled FcSDHFSTIE-N3-DBCO-A647 10 µg/ml with human IgG 100 µg/ml; ratio to NEG.
The target in assay [17] is Fc gamma receptors of NK cells. The assay is described as follows: competition, cytofluorimetry on NK cells: labelled FcSDHFSTIE-N3-DBCO-A647 10 µg/ml with human IgG 1000 µg/ml; ratio to NEG.
For assay [18], the target named is Fc gamma receptors of NK cells. The assay is described as follows: competition, cytofluorimetry on NK cells: labelled FcSDHFSTIE-N3-DBCO-A647 10 µg/ml with human IgG 10000 µg/ml; ratio to NEG.

Turning to “Fc-LALA-β60-74cit (from UniProt P01857 104-330) (Fc fusion)”, the results for the Macrophages (fluorescence by cytofluorimetry) in assay [1] and in assay [2] were 502 and 404, respectively.

Take “Fc-WT-PEG-α621-635cit (from UniProt P01857 104-330) (Fc fusion)”: in assay [3], the inhibition of phagocytosis by competing human IgG at 10 mg/ml amounted to 50%.

In [4], “Fc-WT-PEG-β60-74cit (from UniProt P01857 104-330) (Fc fusion)” returned a % expression of CD107a (NK cell degranulation) of 1.8%.

Turning to “Fc-WT-β60-74cit (from UniProt P01857 104-330) (Fc fusion)”, the Macrophages (fluorescence by cytofluorimetry) was 808 in assay [1] and 1000 in assay [2].

The substance “FcLALAPG-β60-74 (from UniProt P01857 104-330) (Fc fusion)” came in with a % expression of CD107a (NK cell degranulation) in assay [4] of 2.2%.

On to “FcSDHFSTIE-N3-DBCO-A488 (from UniProt P01857 104-330)”, for which the MFI is 2350 in assay [5], 1710 in [6] and 2970 in [7].

As to “FcSDHFSTIE-N3-DBCO-A647 (from UniProt P01857 104-330)”, the MFI in assay [8] was 38500.

Take “FcSDHFSTIE-N3-DBCO-PEG3-β60-74cit-lysineA488 (from UniProt P01857 104-330) (Fc fusion)”: the MFI in assay [5] turned out to be 4090; in [6] it was 4340; in assay [7], 4590.

human IgG (antibody): the MFI of FcSDHFSTIE-N3-DBCO-A647 with IgG as competitor in [9] is 37900; in assay [10], 38800; in [11], 36300; in [12], 29500; in [13], 20500. The RATIO of FcSDHFSTIE-N3-DBCO-A647 with IgG as competitor was 179 in assay [14]; 183 in assay [15]; 171 in [16]; 139 in assay [17]; 96.6 in [18].
